Assay results from US20230167458A1, “FORSKOLIN-INDUCIBLE PROMOTERS AND HYPOXIA-INDUCIBLE PROMOTERS” (ASKLEPIOS BIOPHARMACEUTICAL, INC., priority 2020, published 2023).

Experiments:
[1] = test system: CHO-GSK1SV; assay: Luciferase expression in normoxia vs 24 h hypoxia, transiently transfected CHO-GS suspension cells; format: cell-based, chinese hamster; conditions: for relative rank of promoter strength: transient CHO-GSK1SV, hypoxia; for inducibility after 24 hours in hypoxia (rank) / luciferase activity in normoxia: transient CHO_GS
Method: 40 ml of cells were grown in a 250 ml vented Erlenmeyer flask (Sigma-Aldrich CLS431144) at 37° C., 20% O2, 8% CO2 with agitation at 100 rpm. Cells were seeded as at 300,000 cells/ml.
One day before transfection, the cells were counted using a haemocytometer and split to 500,000 cells/ml.
On the day of transfection, the cells are seeded to 1,000,000 cells/ml in 500 μl of appropriate medium (Thermofisher, CD-CHO 10743029) in a 24 well plate. […] of DNA per well was then added to 10 μl of OptiMem medium (Thermofisher; 11058021) and incubated for 5 minutes at room temperature.
Concurrently, 0.625 μl of Freestyle Max reagent (Thermofisher, 16447100) was made up to 10 μl by addition of OptiMem and incubated for 5 minutes at room temperature. After this incubation, both mixes were added to the same tube and incubated at room temperature for 25-30 minutes. The DNA/Max reagent mix (20 μl/well) was then added directly to the cells and the cells incubated at 37 C, 8% CO2 with agitation at 100 rpm.
The transfected DNA was one of the vectors where the promoter constructs (RTV-015, HYBT, RTV-016, HV3C) or a control promoter (CMV-IE) were used to drive luciferase expression and β-galactosidase containing pcDNA6 plasmid. The β-galactosidase containing plasmid was used as internal control for transfection efficiency (Thermofisher, V22020).
After transfection the cells were incubated for 24 hrs in normoxic conditions (20% oxygen). Induction of the promoters was assessed by using luciferase activity after 24 hrs in normoxia or hypoxia (5% oxygen, 10% carbon dioxide and 85% nitrogen). Hypoxia was achieved by gas displacement in a sealed hypoxia chamber. Luciferase activity was measured as described above.

[2] = test system: CHO-GSK1SV cell line; assay: SEAP expression and cell number in normoxia vs 24 h hypoxia, stably transfected CHO-GS-KSV1; format: cell-based, chinese hamster; conditions: stably integrated CHO-GSK1SV
Method: Cell suspensions of 6×10^5 cells per mL are incubated on an orbital shaker set at 8% CO2, 20% O2, 37° C., 85% relative humidity and 140 rpm overnight. 2.86×10^7 cells were centrifuged at 200 g for 3 minutes. Media is then aspirated and cell pellet resuspended in 2 mL fresh CD-CHO media to obtain a concentration of 1.43×10^7 cells per mL. 700 μL of cell suspension was added to each of two electroporation cuvettes each containing […] of linearised DNA in 100 μL of sterile TE buffer (Thermofisher, 12090015). Each cuvette was electroporated, delivering a single pulse of 300V, […] with resistance to infinity. Immediately after delivery of pulse electroplated cells were transferred to Erlenmeyer 125 mL flask containing 20 mL of CD-CHO media pre-warmed to 37° C. Electroporated cells from two cuvettes are combined into a single 125 mL flask to generate one pool of cells. Cells are cultured on an orbital shaker set at 8% CO2, 20% 02, 37° C., 85% relative humidity and 140 rpm. Cells are transferred to fresh CD-CHO media 24 hours after transfection and cell cultures monitored and given fresh CD-CHO media every 2-4 days. Usually after about 10-14 days cell numbers will be high enough to start passaging. Cells were selected at 14 days and then expanded. Induction was performed once doubling time had returned to approx. 24 hrs. The cells assayed in this example were at passage number 15, 17, 19 and 21.
The transfected DNA was pXC-17.4 expression vector (Lonza Biologics plc) where one of the promoter constructs (RTV-015, HYBT, RTV-016, HV3C) or a control promoter (CMV-IE) have been cloned upstream of the SEAP gene, which had been cloned into the multiple cloning site within the vector expression cassette. Promoters were closed into the pXC-17.4 vector using Gibson assembly. The pXC-17.4 expression vector is designed for making stable cell lines in the CHO-GSK1SV cell line as it contains the […] gene which has been knocked out of the cell line. Therefore, selection of cells in glutamine drop-out medium will select for cells that have stably integrated the plasmid.
Stably transfected CHO-GS cells were seeded at 500,000 cells/ml and allowed to grow for 24 hrs, at this point the cells were counted and placed under hypoxic conditions as previously described. After 24 hrs, the cell numbers and the expression of SEAP was measured.
SEAP Reporter Gene Assay, chemiluminescent (Roche, CAT #11 779 842 001) was used to measured SEAP activity as per manufacturers protocol. All reagents and samples were fully pre-equilibrated at room temperature. Culture supernatant was collected from the stably transfected CHO-GS at the specific time points (0 h and 24 h). The supernatant was diluted 1:4 in dilution buffer and heat treated at 65° C. for 30 minutes. The heat-treated sample was then centrifuged for 30 s at maximum speed. 50 μl of the heat-treated sample was then added to 5 μl of inactivation buffer and incubated for 5 min at room temperature. 50 μl of substrate reagent was then added and incubated for 10 min at room temperature. The signal is then read at 477 nm and compared to a calibration curve. SEAP expression was normalized against cell number to ensure that the increase in activity was not due to increased cell numbers and was true induction. The result of this experiment can be seen in FIG. 16 and FIG. 17.

B1: RTV-015: synthetic hypoxia-inducible promoter, SEQ ID NO: 81; 5 HRE1 elements spaced by 40 bp and minimal promoter MP1 (nucleic acid)
DNA: ACGTGCGATGATGCGTAGCTAGTAGTGATGATGCGTAGCTAGTAGTACGTGCGATGATGCGTAGCTAGTAGTGATGATGCGTAGCTAGTAGTACGTGCGATGATGCGTAGCTAGTAGTGATGATGCGTAGCTAGTAGTACGTGCGATGATGCGTAGCTAGTAGTGATGATGCGTAGCTAGTAGTACGTGCTTGGTACCATCCGGGCCGGCCGCTTAAGCGACGCCTATAAAAAATAGGTTGCATGCTAGGCCTAGCGCTGCCAGTCCATCTTCGCTAGCCTGTGCTGCGTCAGTCCAGCGCTGCGCTGCGTAACGGCCGCC
modifications: Synp-RTV-015
notes: 5 HRE1 elements spaced by 40 bp and minimal promoter MP1
relative rank of promoter strength [1]: weakest
inducibility after 24 hours in hypoxia (rank) [1]: lowest
luciferase activity in normoxia [1]: almost no luciferase activity
SEAP activity in normoxia [2]: almost no SEAP activity
inducibility after 24 hours in hypoxia (rank) [2]: lowest

B2: HV3C: synthetic hypoxia-inducible promoter, SEQ ID NO: 85/87; 4 HRE3 elements and CMV minimal promoter (nucleic acid)
DNA: GATCTTTGTATTTAATTAAGACCTTGAGTACGTGCGTCTCTGCACGTATGGCGATTAAGACCTTGAGTACGTGCGTCTCTGCACGTATGGCGATTAAGACCTTGAGTACGTGCGTCTCTGCACGTATGGCGATTAAGACCTTGAGTACGTGCGTCTCTGCACGTATGGCGATTAATCCATATGCAGGTCTATATAAGCAGAGCTCGTTTAGTGAACCGTCAGATCGCCTAGATACGCCATCCACGCTGTTTTGACCTCCATAGAAGATCGCCACC
modifications: Synp-HV3C
notes: 4 HRE3 elements and CMV minimal promoter
relative rank of promoter strength [1]: strongest
inducibility after 24 hours in hypoxia (rank) [1]: highest
luciferase activity in normoxia [1]: almost no luciferase activity
SEAP activity in normoxia [2]: almost no SEAP activity
inducibility after 24 hours in hypoxia (rank) [2]: highest
